Laboratory results: paper PMC9474520, “Biochemical and structural insights of multifunctional flavin-dependent monooxygenase FlsO1-catalyzed unexpected xanthone formation” (Nature Communications, 2022)

B1: FlsO1 (Micromonospora rosaria) (protein)
chain: MNTIDAEVIIVGAGPTGLMLAGELRLNNVSTIVLDRLAEPMQQSRALGFSARTIEEFDQRGLLARFGEVGTIPFGHFGGVPLDYRVIKGGSYGARGIPQSRTEGMLAQRAVELGAELRRGQEVVSIDDDGTGVAVVVRTADGEQTLRAKYLVGADGARSTVRKAAGIDFPGTDPTMEMWLADVAGCDLRLRFSGELVPGGMVMVLPLGPVAQRVVVFEHATGLRNSTEPPTFAEVADAFERLTGEDIRGGKPLWVSWFTDSSRQAAEYRRGRILLAGDAAHIHMPIGGQGMSAGIQDAVNLGWKLAAEIHGHAPEGLLDTYHTERHPVDGRVVMNTLAQRWLYLGGEAMQPLRELLGELVRYPDVQEHLVGMVTGLDIRYDVGAGEHPLLGRRIPNQELVGEFDGSGKSTTFEQLHRGRGVLFAFGDDTAGPQAATGWTDRVDVVRATPHTADPDDPFHGLDAVLVRPDGYVAWVAPAGAGAAGLDEALSRWFGPSR
notes: (His)6-tagged, pET28a (pCSG5205), E. coli BL21(DE3); Ni-NTA; homodimer; crystals from Q108G/R109G surface mutant
B2: FlsO2 (Micromonospora rosaria) (protein)
chain: MDTDVIVVGAGPTGLMLAGELRLGGARVVLVERLAEPTGQSRGLGFTARAMETLDQRGLLPRFGELETSPRGHFGGVQFDYSVLPDAHFGARGVPQSQTEDVLEKWATETGVDIRRGWELRELTDDGSGVTIVADTPDGTRQLRAAYLVGCDGGQSTVRKLVGFEFEGTPATRGMYLADVVGCALRPRFLGEKLANGMVMAAPLAEGVDRIIVCEHGTPPTERERQVSFEEVAAAWERITGESISHGGSLWVSSFTDATRQATEYRRGRVLLAGDAAHIHLPAAGQGLSVGVQDAANLGWKLAAVVRGHAPEGLLDTYHDERHPVGARLLLNTRVQNAVFLGGEEAEPLRTLFTELISYDTVGRHLAGMVSGLEVRYDVGAGDHPLLGRRLPPRALHGAAGATTTTELLHPATGVLLDLTDDAGLRAVAAGYGDRVAVTVATSDAAEFAGVPALLVRPDGYVAWVGAEPDGLAAALRRWFGEPAPAGQ
notes: expressed from pCSG5102 (previously constructed), E. coli BL21(DE3); purified similarly to FlsO1

Substrate: CC1=CC(=O)[C@@H]2c3cc4cccc(O)c4c(O)c3C(=O)C[C@]2(O)C1
Assay: HPLC of dehydrorabelomycin formation
Type: biochemical, Micromonospora rosaria
Conditions: 2 mM NADPH, 50 mM phosphate pH 7.0, 30 °C

Row | Protein | Km (0.5 μM enzyme) [µM] | Km (0.25 μM enzyme) [µM]
1 | B1 | 253.4 | –
2 | B2 | – | 143.2
